The term Km denotes the substrate concentration at which the rate is half of its maximum.

Here are results for two proteins from PMC6442233, “SAR and molecular mechanism studies of monoamine oxidase inhibition by selected chalcone analogs” (Journal of Enzyme Inhibition and Medicinal Chemistry, 2019).

Substrate in data set [1]: CN1CC=C(c2cccn2C)CC1
Nature of the data set: Spectrophotometric MAO-B assay with MMTP as substrate. The class given is biochemical, human. Particulars: other: MMTP as substrate; 37.0 °C.

Substrate in data set [2]: CN1CC=C(c2cccn2C)CC1
Put plainly: Spectrophotometric MAO-A assay with MMTP as substrate. It counts as biochemical, human. To be noted: other: MMTP as substrate; 37.0 °C.

B1: human MAO-B (Homo sapiens) (protein)
chain: MSNKCDVVVVGGGISGMAAAKLLHDSGLNVVVLEARDRVGGRTYTLRNQKVKYVDLGGSYVGPTQNRILRLAKELGLETYKVNEVERLIHHVKGKSYPFRGPFPPVWNPITYLDHNNFWRTMDDMGREIPSDAPWKAPLAEEWDNMTMKELLDKLCWTESAKQLATLFVNLCVTAETHEVSALWFLWYVKQCGGTTRIISTTNGGQERKFVGGSGQVSERIMDLLGDRVKLERPVIYIDQTRENVLVETLNHEMYEAKYVISAIPPTLGMKIHFNPPLPMMRNQMITRVPLGSVIKCIVYYKEPFWRKKDYCGTMIIDGEEAPVAYTLDDTKPEGNYAAIMGFILAHKARKLARLTKEERLKKLCELYAKVLGSLEALEPVHYEEKNWCEEQYSGGCYTTYFPPGILTQYGRVLRQPVDRIYFAGTETATHWSGYMEGAVEAGERAAREILHAMGKIPEDEIWQSEPESVDVPAQPITTTFLERHLPSVPGLLRLIGLTTIFSATALGFLAHKRGLLVRV
notes: purchased Sigma-Aldrich
For the protein B1, the Km in data set [1] stood at 101 µM.

B2: human MAO-A (Homo sapiens) (protein)
chain: MENQEKASIAGHMFDVVVIGGGISGLSAAKLLTEYGVSVLVLEARDRVGGRTYTIRNEHVDYVDVGGAYVGPTQNRILRLSKELGIETYKVNVSERLVQYVKGKTYPFRGAFPPVWNPIAYLDYNNLWRTIDNMGKEIPTDAPWEAQHADKWDKMTMKELIDKICWTKTARRFAYLFVNINVTSEPHEVSALWFLWYVKQCGGTTRIFSVTNGGQERKFVGGSGQVSERIMDLLGDQVKLNHPVTHVDQSSDNIIIETLNHEHYECKYVINAIPPTLTAKIHFRPELPAERNQLIQRLPMGAVIKCMMYYKEAFWKKKDYCGCMIIEDEDAPISITLDDTKPDGSLPAIMGFILARKADRLAKLHKEIRKKKICELYAKVLGSQEALHPVHYEEKNWCEEQYSGGCYTAYFPPGIMTQYGRVIRQPVGRIFFAGTETATKWSGYMEGAVEAGERAAREVLNGLGKVTEKDIWVQEPESKDVPAVEITHTFWERNLPSVSGLLKIIGFSTSVTALGFVLYKYKLLPRS
notes: purchased Sigma-Aldrich
On to B2, for which the Km in data set [2] was 88 µM.
